{
  "source": "paper PMC3443816",
  "biological_target": "T1, Cbf5 wild type;Nop10;Gar1 (in complex) (Pyrococcus furiosus;Pyrococcus …, UniProt Q7LWY0;Q8U1R4;Q8U029 1-340;1-60;=MG+2-104, ||internal_change)",
  "T1 sequence 1": "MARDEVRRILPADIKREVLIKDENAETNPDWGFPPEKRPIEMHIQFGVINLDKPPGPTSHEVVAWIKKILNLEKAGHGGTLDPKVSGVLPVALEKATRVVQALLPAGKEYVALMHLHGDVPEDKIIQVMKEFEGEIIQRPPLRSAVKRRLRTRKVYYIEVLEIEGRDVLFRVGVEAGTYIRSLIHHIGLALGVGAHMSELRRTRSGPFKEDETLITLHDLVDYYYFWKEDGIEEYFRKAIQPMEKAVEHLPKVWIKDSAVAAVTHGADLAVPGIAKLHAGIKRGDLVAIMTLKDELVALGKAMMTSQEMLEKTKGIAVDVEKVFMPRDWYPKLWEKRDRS",
  "T1 sequence 2": "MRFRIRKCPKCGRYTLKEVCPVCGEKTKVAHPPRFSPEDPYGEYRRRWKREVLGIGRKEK",
  "T1 sequence 3": "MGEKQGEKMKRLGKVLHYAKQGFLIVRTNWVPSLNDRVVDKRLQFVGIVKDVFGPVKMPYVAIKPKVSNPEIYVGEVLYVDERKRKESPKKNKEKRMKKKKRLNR",
  "test": "filter binding",
  "data": [
    {"binder": "H/ACA guide RNA Pf4 (structured_RNA) RNA: AAUGCCCCUCCCCUCUCACACCCCCGUGAGAAGUGAGCGGGGGGCGGUCGGGGAGGGGACAUCA", "values": [
      {"measurement": "Kd", "value": "21 ± 8", "unit": "nM"}
    ]}
  ]
}
